Source: patent US20260001953A1

Molecular target: Sialic acid-binding immunoglobulin-like lectin 8 (SIGLEC-8), antigen of the Carterra SPR studies (UniProt Q9NYZ4)
Assay: SPR cross-reactivity table

Sequence of Sialic acid-binding immunoglobulin-like lectin 8 (SIGLEC-8), antigen of the Carterra SPR studies (Q9NYZ4 17-363 limits assumed): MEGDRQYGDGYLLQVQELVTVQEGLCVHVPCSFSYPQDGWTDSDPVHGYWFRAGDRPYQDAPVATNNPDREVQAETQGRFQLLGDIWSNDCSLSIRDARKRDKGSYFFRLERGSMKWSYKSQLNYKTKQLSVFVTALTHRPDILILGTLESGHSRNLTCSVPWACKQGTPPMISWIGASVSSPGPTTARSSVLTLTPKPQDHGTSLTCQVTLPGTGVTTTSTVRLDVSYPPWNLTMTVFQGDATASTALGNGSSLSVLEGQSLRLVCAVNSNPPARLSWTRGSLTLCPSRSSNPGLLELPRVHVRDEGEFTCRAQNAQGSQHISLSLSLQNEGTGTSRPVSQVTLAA

Control (antibody) showed a Kd of 31 pM.
